The target in this assay is T1, HLA-A*02 (Homo sapiens, UniProt P04439, D140Y/D185E/D98H/E176V/E277Q/G131W/G231S/I119V/I121R/I166T/I218V/L300P/N151K/N90K/P208A/P217A/Q86G/Q94H/R138H/R169H).
T1 construct: made in house
The experiment in a line: MHC binding assay, UV-ligand exchange with beta2m ELISA (peptide exchange yield). The conditions noted are these: binding to HLA-A*02. An excerpt: Candidate peptides for T cell based therapies according to the present invention were further tested for their MHC binding capacity (affinity). The individual peptide-MHC complexes were produced by UV-ligand exchange, where a UV-sensitive peptide is cleaved upon UV-irradiation, and exchanged with the peptide of interest as analyzed. Only peptide candidates that can effectively bind and stabilize the peptide-receptive MHC molecules prevent dissociation of the MHC complexes. To determine the yield of the exchange reaction, an ELISA was performed based on the detection of the light chain (β2m) of stabilized MHC complexes. The assay was performed as generally described in Rodenko et al. (Rodenko et al., 2006).
96 well MAXISorp plates (NUNC) were coated over night with 2 ug/ml streptavidin in PBS at room temperature, washed 4× and blocked for 1h at 37° C. in 2% BSA containing blocking buffer. Refolded HLA-A*02:01/MLA-001 monomers served as standards, covering the range of 15-500 ng/ml. Peptide-MHC monomers of the UV-exchange reaction were diluted 100 fold in blocking buffer. Samples were incubated for 1h at 37° C., washed four times, incubated with 2 ug/ml HRP conjugated anti-32m for 1h at 37° C., washed again and detected with TMB solution that is stopped with […]. Absorption was measured at 450 nm. Candidate peptides that show a high exchange yield (preferably higher than 50%, most preferred higher than 75%) are generally preferred for a generation and production of antibodies or fragments thereof, and/or T cell receptors or fragments thereof, as they show sufficient avidity to the MHC molecules and prevent dissociation of the MHC complexes.
On to “265 (NTCPYVHNI; listed as Homo sapiens) [compound 265]”, for which the “Peptide exchange (MHC class I binding score, peptide exchange yield)” value (from here on “Peptide exchange”) is given as “+++ (50%-75% = +++)”. The result for “36 (SLADTNSLAVV; listed as Homo sapiens) [compound 36]” reads “+++ (50%-75% = +++)”; that for “50 (ILFHGVFYA; listed as Homo sapiens) [compound 50]”, “+++ (50%-75% = +++)”. The same measure for “252 (RLMEICESL; listed as Homo sapiens) [compound 252]”: “+++ (50%-75% = +++)”. As to “257 (GLYTDPCGV; listed as Homo sapiens) [compound 257]”, the “Peptide exchange” value was “++++ (> = 75% = ++++)”. As to “37 (ILAPFSVDL; listed as Homo sapiens) [compound 37]”, the “Peptide exchange” value is reported as “+++ (50%-75% = +++)”. The same measure for “155 (LLNPVVEFV; listed as Homo sapiens) [compound 155]”: “+++ (50%-75% = +++)”; for “102 (VLLDIQEVFQI; listed as Homo sapiens) [compound 102]”: “+++ (50%-75% = +++)”.

Consider “111 (AIVDLIHDI; listed as Homo sapiens) [compound 111]”, for which the “Peptide exchange” value is reported as “++ (20%-49% = ++)”. The same measure for “48 (QVIEDSTGV; listed as Homo sapiens) [compound 48]”: “++ (20%-49% = ++)”. The same measure for “117 (KMPDVELFV; listed as Homo sapiens) [compound 117]”: “+++ (50%-75% = +++)”; for “142 (ILVEGISTV; listed as Homo sapiens) [compound 142]”: “+++ (50%-75% = +++)”; for “240 (YMGEEKLIASV; listed as Homo sapiens) [compound 240]”: “+++ (50%-75% = +++)”.

For “127 (KLDGNELDL; listed as Homo sapiens) [compound 127]”, the “Peptide exchange” value was “+++ (50%-75% = +++)”. The same measure for “95 (GLLGSLFFL; listed as Homo sapiens) [compound 95]”: “++++ (> = 75% = ++++)”; for “88 (AQADHLPQL; listed as Homo sapiens) [compound 88]”: “++ (20%-49% = ++)”; for “49 (ALNIATHVL; listed as Homo sapiens) [compound 49]”: “+++ (50%-75% = +++)”.

Regarding “244 (YLLEKNRVV; listed as Homo sapiens) [compound 244]”, the “Peptide exchange” value is “++ (20%-49% = ++)”. The same measure for “57 (TVFTDHMLTV; listed as Homo sapiens) [compound 57]”: “++ (20%-49% = ++)”; for “60 (ALFAPLVHL; listed as Homo sapiens) [compound 60]”: “+++ (50%-75% = +++)”; for “129 (RLQDILWFL; listed as Homo sapiens) [compound 129]”: “++++ (> = 75% = ++++)”. The same measure for “81 (NALDKVLSV; listed as Homo sapiens) [compound 81]”: “+++ (50%-75% = +++)”.

For “16 (YTLDIPVLFGV; listed as Homo sapiens) [compound 16]”, the “Peptide exchange” value is “++++ (> = 75% = ++++)”. For the substance “67 (TLLQRLTEV; listed as Homo sapiens) [compound 67]”, the “Peptide exchange” value is reported as “+++ (50%-75% = +++)”. The result for “107 (LLVPTSGIYFV; listed as Homo sapiens) [compound 107]” reads “+++ (50%-75% = +++)”.

(Values after patent publication US10143730B2, “Peptides and combination of peptides for use in immunotherapy against various cancers” (immatics biotechnologies GmbH, priority 2015, dated 2018).)
